Results on 5 molecules are retold here after patent publication US20210277112A1 (BIOND BIOLOGICS, published 2021).

Assay [1] concerns the target T1, recombinant ILT2 (human, UniProt Q8NHL6 24-461).
T1 construct: also called LILRB1; LIR1
Briefly: binding ELISA, hILT2-Fc, negative control.

Assay [2] deals with T2, PIRB (UniProt P97484 25-642, limits assumed).
T2 sequence (looked up): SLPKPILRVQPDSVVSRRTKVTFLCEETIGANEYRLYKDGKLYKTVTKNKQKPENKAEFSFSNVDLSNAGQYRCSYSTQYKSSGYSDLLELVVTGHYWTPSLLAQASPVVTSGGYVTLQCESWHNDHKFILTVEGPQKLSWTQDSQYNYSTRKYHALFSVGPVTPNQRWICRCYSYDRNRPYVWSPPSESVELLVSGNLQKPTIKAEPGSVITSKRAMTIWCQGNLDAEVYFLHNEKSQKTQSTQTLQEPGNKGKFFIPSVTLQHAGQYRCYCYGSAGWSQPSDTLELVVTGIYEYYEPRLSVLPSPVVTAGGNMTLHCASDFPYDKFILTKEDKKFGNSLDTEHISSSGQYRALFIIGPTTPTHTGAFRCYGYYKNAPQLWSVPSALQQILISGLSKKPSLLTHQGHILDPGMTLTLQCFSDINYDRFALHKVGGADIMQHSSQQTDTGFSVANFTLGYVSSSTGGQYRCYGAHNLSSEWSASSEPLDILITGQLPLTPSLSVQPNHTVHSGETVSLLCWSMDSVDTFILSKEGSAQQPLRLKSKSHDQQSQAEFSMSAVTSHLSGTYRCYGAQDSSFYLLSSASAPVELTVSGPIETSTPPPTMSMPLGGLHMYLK
The experiment in a line: binding ELISA, column PIRB, negative control.

The target in assay [3] is T3, ILT6 (UniProt Q8N6C8 24-439). Briefly: binding ELISA, column hILT6-His, negative control.
T3 sequence (Q8N6C8 24-439 limits assumed): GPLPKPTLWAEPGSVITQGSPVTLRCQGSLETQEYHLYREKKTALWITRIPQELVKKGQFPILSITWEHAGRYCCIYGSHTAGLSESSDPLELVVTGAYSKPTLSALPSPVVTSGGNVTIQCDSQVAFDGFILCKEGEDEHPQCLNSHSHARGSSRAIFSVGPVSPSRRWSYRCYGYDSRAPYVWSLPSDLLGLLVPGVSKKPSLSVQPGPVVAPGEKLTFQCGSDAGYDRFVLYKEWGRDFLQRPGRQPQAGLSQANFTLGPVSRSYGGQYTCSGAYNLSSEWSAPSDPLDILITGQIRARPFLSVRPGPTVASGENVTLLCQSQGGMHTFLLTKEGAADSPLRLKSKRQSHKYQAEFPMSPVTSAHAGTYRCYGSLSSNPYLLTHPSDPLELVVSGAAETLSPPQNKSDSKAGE
In assay [4] the target is T4, LILRA1 (UniProt O75019 17-461, limits assumed). Briefly: binding ELISA, column hLILRA1-His, negative control.
T4 sequence (O75019 17-461 limits assumed): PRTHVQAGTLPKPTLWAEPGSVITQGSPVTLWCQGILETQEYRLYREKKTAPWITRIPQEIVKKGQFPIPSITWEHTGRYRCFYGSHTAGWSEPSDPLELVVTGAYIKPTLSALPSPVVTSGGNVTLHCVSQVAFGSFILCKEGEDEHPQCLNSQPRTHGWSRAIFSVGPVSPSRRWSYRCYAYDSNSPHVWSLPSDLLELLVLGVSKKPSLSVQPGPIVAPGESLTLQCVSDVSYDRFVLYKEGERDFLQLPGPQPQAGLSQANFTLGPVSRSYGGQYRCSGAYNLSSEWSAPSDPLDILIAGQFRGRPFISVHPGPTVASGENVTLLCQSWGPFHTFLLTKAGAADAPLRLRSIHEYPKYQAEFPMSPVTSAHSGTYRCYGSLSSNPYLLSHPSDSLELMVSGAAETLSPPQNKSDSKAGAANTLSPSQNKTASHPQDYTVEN
Assay [5] deals with T1, recombinant ILT2. The experiment in a line: binding ELISA, hILT2-Fc; positive control is GHI/75 by paragraph 227.
For assay [6], the target named is T5, recombinant human ILT2-Fc conjugated with biotin (human, UniProt Q8NHL6 24-458, limits assumed, conjugated with biotin (sites not given)).
T5 construct: It is written here as ILT2 then Fc; also called ILT2-biotin; biotinylated ILT2; not shown: Fc portion of human IgG1
T5 sequence (Q8NHL6 24-458 limits assumed): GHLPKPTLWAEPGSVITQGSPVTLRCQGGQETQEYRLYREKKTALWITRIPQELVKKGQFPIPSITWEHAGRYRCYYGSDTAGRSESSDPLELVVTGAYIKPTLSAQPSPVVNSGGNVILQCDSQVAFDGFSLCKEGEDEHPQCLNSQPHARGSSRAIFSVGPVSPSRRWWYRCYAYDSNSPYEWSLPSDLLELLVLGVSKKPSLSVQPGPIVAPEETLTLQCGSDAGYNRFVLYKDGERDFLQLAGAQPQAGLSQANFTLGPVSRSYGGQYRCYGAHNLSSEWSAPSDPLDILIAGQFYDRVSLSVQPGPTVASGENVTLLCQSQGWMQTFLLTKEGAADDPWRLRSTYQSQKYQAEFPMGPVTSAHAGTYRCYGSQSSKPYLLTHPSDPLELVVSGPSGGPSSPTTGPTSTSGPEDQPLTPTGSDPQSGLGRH
The experiment in a line: flow cytometry blocking assay: ILT2-biotin binding to cells expressing HLA-G. Here is the method:
(§1) Flow cytometry blocking assay—Recombinant human ILT2 protein fused with the Fc portion of human IgG1 at the N terminal was conjugated with biotin (Innova bioscience). A total of 5×10⁵ A375/HLA-G1 cells were incubated in a volume of 100 μL in the presence of anti-ILT2 clone #1 or isotype matched control mAb and ILT2-Fc conjugated with biotin (10 μg/mL) for 30 minutes at room temperature. After several washing steps, streptavidin-PE was added at a final concentration of 0.2 μg/mL and incubated for 30 min on ice followed by FACS analysis.
(§2) The ability of the generated anti-ILT2 antibodies to block the interaction between HLA-G and ILT2 was tested using four different assays. First, a blocking flow cytometry assay was performed. HLA-G transfected A375 cells were incubated with biotinylated ILT2 in the presence of the antibodies of the invention and a positive control antibody. The commercially available anti-ILT2 antibody GHI/75 (BioLegend, cat #333704) was used as the positive control. The binding of ILT2-biotin to the cells was determined using Streptavidin-PE by flow cytometry analysis (FIG. 8A). The percent of blocking was determined by normalizing to a negative control (ILT2 binding in the presence of control IgG). […] The percentage of blocking was calculated at various concentrations of antibody (FIG. 8C).

Assay [7] addresses T6, ILT2/CD3z chimera on BW5417.3 cells (human; mouse, UniProt P24161 31-164, limits assumed).
T6 construct: domain: trans-membrane and cytoplasmic residues; Expressed on the surface of the mouse BW T cell line; also called BW-ILT2; BW/ILT2z
Briefly: flow cytometry titration on BW cells transfected with human ILT2, y axis FAB.

In assay [8] the target is T2, PIRB. Briefly: binding ELISA, column PIRB.
The target in assay [9] is T1, recombinant ILT2. The experiment in a line: competition ELISA on ILT2: biotinylated 15G8 at 1 µg/ml as the labelled competitor, unbiotinylated 15G8 varied. Here is the method:
This raises the question of the epitope of GHI/75 and other commercial antibodies. Though the epitopes of these antibodies are not published a competition ELISA assay was performed to see if 15G8 and GHI/75 and HP-F1 could bind ILT2 at the same time. Biotinylated 15G8 antibody was used at a constant concentration (1 μg/ml) in an ILT2 binding ELISA. GHI/75 and HP-F1 were added in increasing concentrations and competition was assessed. Regardless of the amount of these two antibodies added, neither one competed with 15G8 for binding to ILT2 (FIG. 19). In contrast, when naked (unbiotinylated) 15G8 was added, the binding decreased in a dose dependent manner as expected. […] This makes 15G8 the first anti-ILT2 antibody ever identified to bind this epitope, to specifically block interaction with B2M and to be able to simultaneously activate/recruit T cells, NK cells and macrophages/dendritic cells against cancer.

For assay [10], the target named is T3, ILT6. Briefly: binding ELISA, column hILT6-His.
The target in assay [11] is T4, LILRA1. Briefly: binding ELISA, column hLILRA1-His.
Assay [12] has as its target T5, recombinant human ILT2-Fc conjugated …. Briefly: flow cytometry blocking assay: ILT2-biotin binding to cells expressing HLA-G. Here is the method: as §1, §2
The source holds these as a separate data set.

Where two headings read alike, the source gives them in different places.

T1 sequence (Q8NHL6 24-461 limits assumed): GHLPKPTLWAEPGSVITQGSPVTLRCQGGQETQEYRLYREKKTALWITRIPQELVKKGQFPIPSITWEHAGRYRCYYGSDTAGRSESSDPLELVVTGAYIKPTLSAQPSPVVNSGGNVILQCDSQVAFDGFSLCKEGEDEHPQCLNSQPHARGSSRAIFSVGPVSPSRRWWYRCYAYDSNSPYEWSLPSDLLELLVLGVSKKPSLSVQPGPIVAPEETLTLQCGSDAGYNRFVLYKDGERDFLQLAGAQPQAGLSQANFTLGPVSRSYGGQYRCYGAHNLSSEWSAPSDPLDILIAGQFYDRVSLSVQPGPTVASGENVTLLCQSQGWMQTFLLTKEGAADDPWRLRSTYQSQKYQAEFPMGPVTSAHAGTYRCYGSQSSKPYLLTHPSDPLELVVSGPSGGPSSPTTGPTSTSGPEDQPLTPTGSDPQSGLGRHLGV
T6 sequence (P24161 other isoform, or with tags, fused parts or gaps mutant limits assumed): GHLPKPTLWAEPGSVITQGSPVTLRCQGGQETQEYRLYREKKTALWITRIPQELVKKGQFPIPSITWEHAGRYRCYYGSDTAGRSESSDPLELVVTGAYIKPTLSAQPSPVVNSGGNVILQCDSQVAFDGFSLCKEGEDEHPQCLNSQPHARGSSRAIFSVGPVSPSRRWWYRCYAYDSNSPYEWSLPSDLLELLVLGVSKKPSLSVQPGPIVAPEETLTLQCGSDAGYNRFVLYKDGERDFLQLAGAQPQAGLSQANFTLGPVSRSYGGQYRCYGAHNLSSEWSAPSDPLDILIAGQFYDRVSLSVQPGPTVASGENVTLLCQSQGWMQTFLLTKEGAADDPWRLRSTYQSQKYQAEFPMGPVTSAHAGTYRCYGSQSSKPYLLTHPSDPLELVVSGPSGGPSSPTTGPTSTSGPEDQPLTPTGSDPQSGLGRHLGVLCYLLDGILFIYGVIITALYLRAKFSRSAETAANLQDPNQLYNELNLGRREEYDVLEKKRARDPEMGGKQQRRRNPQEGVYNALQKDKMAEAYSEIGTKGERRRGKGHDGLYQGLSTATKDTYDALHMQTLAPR

With Negative, the ELISA (OD) stood at 0.05 OD with recombinant ILT2 [1], 0.0575 OD in the assay with PIRB [2], 0.071 OD with ILT6 [3] and 0.13 OD with LILRA1 [4].
Take “GHI/75 commercial mouse anti-human ILT2 antibody (BioLegend, Cat. No. 333704)”: in the assay with recombinant ILT2 [5], the ELISA (OD) came out at 2.45 OD.

B1: chimeric 15G8 (antibody, V domains shown)
VH: DVQLQGSGPGLVKPSQSLSLTCSVTGYSITSGYYWNWIRQFPGNKLEWMGYISYDGSNNYNPSLKNRISITRDTSKNQFFLKLNSVTSEDTATYYCAHGYSYYYAMDCWGQGTSVTVSS
VL: DIQMTQTTSSLSASLGDRVTISCRTSQDISNYLNWYQQKPDGTVKLLISYTSRLHSGVPSRFSGSGSGTDYSLTISNLEQEDIATYFCQQGNTLPTFGSGTKLEIK
notes: Constant regions not described; also called chimeric murine 15G8
Take B1: the “IC50 (read off the curve)” value in [6] is about 0.2 µg/mL. The “EC50 (read off the curve)” value in assay [7] was about 0.5 µg/mL.

B2: 15G8 (original hybridoma-derived murine anti-ILT2 antibody) (antibody, V domains shown)
VH: DVQLQGSGPGLVKPSQSLSLTCSVTGYSITSGYYWNWIRQFPGNKLEWMGYISYDGSNNYNPSLKNRISITRDTSKNQFFLKLNSVTSEDTATYYCAHGYSYYYAMDCWGQGTSVTVSS
VL: DIQMTQTTSSLSASLGDRVTISCRTSQDISNYLNWYQQKPDGTVKLLISYTSRLHSGVPSRFSGSGSGTDYSLTISNLEQEDIATYFCQQGNTLPTFGSGTKLEIK
notes: also called 15G8 antibody
Take B2: the binding result with PIRB [8], with ILT6 [10] and with LILRA1 [11] was “no binding” throughout. For the same molecule, in the assay with recombinant ILT2 [9], the “IC50 (read off the curve)” value was about 3 µg/mL.

B3: humanized 15G8 (alanine variant) (antibody, V domains shown)
VH: DVQLQGSGPGLVKPSETLSLTCSVTGYSITSGYYWNWIRQFPGKKLEWMGYISYDGSNNYNPSLKNRITISRDTSKNQFSLKLNSVTAADTATYYCAHGYSYYYAMDAWGQGTSVTVSS
VL: DIQMTQSPSSLSASVGDRVTITCRTSQDISNYLNWYQQKPGKAVKLLISYTSRLHSGVPSRFSGSGSGTDYTLTISSLQPEDFATYYCQQGNTLPTFGQGTKLEIK
notes: also called 15G8 humanized antibody; humanized antibody 15G8
Turning to B3, the “IC50 (read off the curve)” value in [6] was about 0.2 µg/mL; in [12] it was about 0.3 µg/mL. Further, in [7], the “EC50 (read off the curve)” value was about 0.5 µg/mL.
